Data set [1] concerns the target T1, mouse NR4A3 ligand-binding domain (Mus musculus, UniProt Q9QZB6).
T1 sequence (Q9QZB6 395-624): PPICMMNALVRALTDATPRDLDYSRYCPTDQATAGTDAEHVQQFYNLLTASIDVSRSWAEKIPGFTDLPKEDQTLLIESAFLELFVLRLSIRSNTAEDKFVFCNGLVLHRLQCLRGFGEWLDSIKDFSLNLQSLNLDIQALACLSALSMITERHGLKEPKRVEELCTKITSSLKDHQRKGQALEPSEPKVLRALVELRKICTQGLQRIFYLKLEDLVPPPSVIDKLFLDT
Kind of data set: isothermal titration calorimetry.

Data set [2] deals with C[C@]12CCC(=O)C=C1CC[C@@H]1[C@@H]2[C@@H](O)C[C@@]2(C)[C@H]1CC[C@]2(O)C(=O)CO. Kind of data set: purified protein. The note with it: 50 mM phosphate pH 7.5, NADH.
Substrate in the data set “purified protein”: C[C@]12CCC(=O)C=C1CC[C@@H]1[C@@H]2[C@@H](O)C[C@@]2(C)[C@H]1CC[C@]2(O)C(=O)CO
Kind of data set: purified protein. The note with it: 50 mM phosphate pH 7.5, NADH. This is another data set of the same source.

As for `C[C@]12CCC(=O)C=C1CC[C@@H]1[C@@H]2[C@@H](O)C[C@@]2(C)[C@H]1CC[C@]2(O)[C@@H](O)CO` [20α-dihydrocortisol], in data set [1], the Kd (in general, a measure of binding affinity in units of concentration) stood at 21.9 ± 2.6 µM.

As for `CCCCC[C@H](O)/C=C/[C@H]1C=CC(=O)[C@@H]1C/C=C\CCCC(=O)O` [PGA2], the Kd in data set [1] was found to be 66.6 ± 17.4 µM. For the molecule “DesC ([Clostridium] scindens ATCC 35704; H50A)”, in data set [2], the Km (in general, the substrate concentration at which the rate is half of its maximum) stood at 23.99 ± 0.26 µM; the kcat (commonly the number of substrate molecules converted per active site and unit of time at saturation) came to 12.5 ± 0.89 min⁻¹. The matching figures for “DesC ([Clostridium] scindens ATCC 35704; S47T)”: 77.78 ± 1.78 µM and 0.66 ± 0.04 min⁻¹.

As for “DesC ([Clostridium] scindens ATCC 35704; Y101R)”, in data set [2], the Km amounted to 628.65 ± 29.96 µM and the kcat was determined as 1.77 ± 0.30 min⁻¹. With “DesC ([Clostridium] scindens ATCC 35704; Y124R)”, in data set [2], the Km stood at 61.01 ± 2.71 µM and the kcat was determined as 8.06 ± 0.14 min⁻¹.

B1: DesC ([Clostridium] scindens ATCC 35704) (protein)
chain: MRQLFVTSIRDFEKNTMGTVDMMEAPMPEPKDEEIRIKVVYASICGSDTHILTGNLGEMESTTRSMLPMSFGHELSGVIDKVGSTAEKMGFKVGQKVVANYAKYCGCCENCREGKVNLCSNMGYRMNGFSEYAVYHMSQIFPIPDDADLKDYALVEPLTVALSSAEQAKISYGKSVAIMGAGGLGMMLVQLARLAGASTITVFDIVPEKLELALENGADYALNSAEEGVAERAIELAGGRYDCVLEGTGATAAAKLGLQLLARDGDAVYFAMYGKDPILPVNLQSDLYWDQKHIHGMIQGAWQFPKSIRMIPRMDFSKIIQKEHTLTNYKQAFEDLYSKKYAKIVIKMDE
With B1, in “purified protein”, the Km was 11.62 ± 1.02 µM and the kcat amounted to 92.31 ± 7.49 min⁻¹.
